Data published in paper PMC9312469.

Key:
[1] = biological target: PH-YFP (isolated PLCδ1 PH domain linked to a yellow fluorescent protein variant that lacks the A206K mutation) (UniProt P51178); assay: fluorescence fluctuation spectroscopy (photon counting histogram); PH-YFP bound to POPC:PI(4,5)P2 (95:5) GUVs, 20 μM Ca2+; two-brightness population model
[2] = biological target: PH-YFP (isolated PLCδ1 PH domain linked to a yellow fluorescent protein variant that lacks the A206K mutation) (UniProt P51178); assay: fluorescence fluctuation spectroscopy (photon counting histogram); PH-YFP bound to POPC:PI(4,5)P2 (95:5) GUVs, 50 μM Ca2+; two-brightness population model
[3] = biological target: PH-YFP (isolated PLCδ1 PH domain linked to a yellow fluorescent protein variant that lacks the A206K mutation) (UniProt P51178); assay: fluorescence fluctuation spectroscopy (photon counting histogram); PH-YFP bound to POPC:PI(4,5)P2 (95:5) GUVs, 100 μM Ca2+; two-brightness population model
[4] = biological target: PH-YFP (isolated PLCδ1 PH domain linked to a yellow fluorescent protein variant that lacks the A206K mutation) (UniProt P51178); assay: fluorescence fluctuation spectroscopy (photon counting histogram); PH-YFP bound to POPC:PI(4,5)P2 (95:5) GUVs, 5 mM EDTA (0 μM Ca2+); two-brightness population model
[5] = biological target: PH-YFP (isolated PLCδ1 PH domain linked to a yellow fluorescent protein variant that lacks the A206K mutation) (UniProt P51178); assay: fluorescence fluctuation spectroscopy (photon counting histogram); PH-YFP bound to POPC:PI(4,5)P2 (95:5) GUVs, in the presence of Ca2+ (20, 50 and 100 μM taken together, on average); two-brightness population model

- F1 (Monomeric Population), fraction weighed by brightness [1]: 99.3%
- F2 (Oligomeric Population), fraction weighed by brightness [1]: 0.7%
- F1 (Monomeric Population), fraction weighed by brightness [2]: 82.5%
- F2 (Oligomeric Population), fraction weighed by brightness [2]: 17.5%
- F1 (Monomeric Population), fraction weighed by brightness [3]: 86.5%
- F2 (Oligomeric Population), fraction weighed by brightness [3]: 13.5%
- F1 (Monomeric Population), fraction weighed by brightness [4]: 71.3%
- F2 (Oligomeric Population), fraction weighed by brightness [4]: 28.7%
- brightness of the second population relative to the lower brightness (monomer) component [4]: 2.3 fold
- stoichiometry N [4]: 2
- fraction of particles in the second (oligomeric) population [5]: < 5%
Substance: PH-YFP (isolated PLCδ1 PH domain linked to a yellow fluorescent protein variant that lacks the A206K mutation) (from UniProt P51178 21-130)
